This note sets out measurements from PMC4851429 (Structure (London, England : 1993), 2015).

In general, stoichiometry N refers to the number of molecules, sites or subunits per partner or assembly. As usually defined, the Kd is a measure of binding affinity in units of concentration. A high value points to a looser complex.

B1: human FLRT3 LRR domain (residues K29-D357) (domain or fragment, UniProt Q9NZU0 29-357, looked up)
chain: KSCPSVCRCDAGFIYCNDRFLTSIPTGIPEDATTLYLQNNQINNAGIPSDLKNLLKVERIYLYHNSLDEFPTNLPKYVKELHLQENNIRTITYDSLSKIPYLEELHLDDNSVSAVSIEEGAFRDSNYLRLLFLSRNHLSTIPWGLPRTIEELRLDDNRISTISSPSLQGLTSLKRLVLDGNLLNNHGLGDKVFFNLVNLTELSLVRNSLTAAPVNLPGTNLRKLYLQDNHINRVPPNAFSYLRQLYRLDMSNNNLSNLPQGIFDDLDNITQLILRNNPWYCGCKMKWVRDWLQSLPVKVNVRGLMCQAPEKVRGMAIKDLNAELFDCKD
modifications: N-linked glycosylation observed at N226
B2: biotinylated human LPHN3 olfactomedin domain (residues V132-G392) (domain or fragment, UniProt Q9HAR2 132-392, looked up)
chain: VFLCPGLLKGVYQSEHLFESDHQSGAWCKDPLQASDKIYYMPWTPYRTDTLTEYSSKDDFIAGRPTTTYKLPHRVDGTGFVVYDGALFFNKERTRNIVKFDLRTRIKSGEAIIANANYHDTSPYRWGGKSDIDLAVDENGLWVIYATEQNNGKIVISQLNPYTLRIEGTWDTAYDKRSASNAFMICGILYVVKSVYEDDDNEATGNKIDYIYNTDQSKDSLVDVPFPNSYQYIAAVDYNPRDNLLYVWNNYHVVKYSLDFG
modifications: biotin (biotinylated; residue not stated)
B3: human LPHN3 olfactomedin domain (residues V132-G392) (domain or fragment, UniProt Q9HAR2 132-392, looked up)
chain: B2 chain

Data set [1] concerns the molecule itself. Briefly: SEC. For orientation: SEC sorts molecules by how far they enter the pores of the column.
The target of data set [2] is B1. Description: flow cytometry on cells. (In general: In flow cytometry, cells or beads pass a laser one at a time.)
The target of data set [3] is B1. Description: BLI. In general terms: Biolayer interferometry detects binding as a change in optical thickness at a sensor tip.

As to B1, in data set [1], the “stoichiometry N” value was 2. Regarding B2, the binding result in data set [2] is “binds”. As to B3, the Kd in data set [3] was in the range of 220 to 260 nM.
